Reference: patent US20110262447A1
Where two headings read alike, the source gives them in different places.

How the values were obtained:
[1] = biological target: T1, FRHSVV peptide, the common epitope of mutant p53 (biotin conjugate) (human)
[2] = biological target: T1, FRHSVV peptide, the common epitope of …; experiment: BIAcore SPR

B1: F2 scFv (scFv)
scFv: VQLLESGGGLVQPGGSLRLSCAASGFTFSGYWMHWVRQAPGKGLEWVSEISGSGDSTHYGDSVKGRFTISRDNSKNTLYLQMNSLRAEDTAVYYCARGRNGSLDYWGQGTLVTVSSGSAGGGGSGGGGSGGGGSDIVLTQPPSASGTPGQRVTISCSGTSSNIGADYDVHWYQQLPGKAPKLLIYDNNKRPSGVSDRFSGSKSGTSASLAISGLRSEDEADYYCAAWDSSLSSVVFGGGTQLTV
With B1 as the binder, how does the Kd [1] read?
The Kd was 11 nM.

B2: E6 scFv (scFv)
scFv: VQLLESGGGLVQPGGSLRLSCAASGFTFSGYWMHWVRQAPGKGLEWVSEISGSGDSTHYGDSVKGRFTISRDNSKNTLYLQMNSLRAEDTAVYYCARGRNGSLDYWGQGTLVTVSSGSAGGGGSGGGGSGGGGSDIVLTQPPSASGTPGQRVTISCSGSSSNIGAGYDVHWYQQLPGTAPKLLIYGNTNRPSGVSDRFSGSKSGTSASLAISGLRSEDEADYYCQSFDSTLSGPVFGGGTKVTV
With B2 as the binder, how does the Kd [1] read?
Its Kd is 4.6e-05 nM.

B3: A6 scFv (scFv)
scFv: VQLLESGGGLVQPGGSPRLSCAASGFTFSGYWMHWVRQAPGKGLEWVSEISGSGDSTHYGDSVKGRFTISRDNSKNTLYLQMNSLRAEDTAVYYCARGRNGSLDYWGQGTLVTVSSGSAGGGGSGGGGSGGGGSDIVLTQPPSASGTPGQRVTISCTGGRFNIGDYAVNWYQQLPGKAPKLLIYDNDRRPSGVSDRFSGSKSGTSASLAISGLRSEDEADYYCAAWDDSLDGLVFGGGTQLTV
With B3 as the binder, how does the Kd [2] read?
Its Kd is 23 nM.
